Reference: US20250076311A1 (Chugai, published 2025)

T1: soluble mouse FcγRII, His-tagged (mouse, UniProt P08101 30-210, limits assumed)
T1 construct: Captured on the chip through an anti-His antibody
T1 sequence (looked up): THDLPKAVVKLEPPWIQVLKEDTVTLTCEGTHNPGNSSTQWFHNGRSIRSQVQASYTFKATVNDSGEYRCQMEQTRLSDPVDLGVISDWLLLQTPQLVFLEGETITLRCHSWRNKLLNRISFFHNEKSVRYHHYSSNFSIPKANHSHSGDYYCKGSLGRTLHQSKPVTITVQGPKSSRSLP

T2: human FcγRIIb constitutively expressed on MDCK cells (human, UniProt P31994 43-310)
T2 sequence (looked up): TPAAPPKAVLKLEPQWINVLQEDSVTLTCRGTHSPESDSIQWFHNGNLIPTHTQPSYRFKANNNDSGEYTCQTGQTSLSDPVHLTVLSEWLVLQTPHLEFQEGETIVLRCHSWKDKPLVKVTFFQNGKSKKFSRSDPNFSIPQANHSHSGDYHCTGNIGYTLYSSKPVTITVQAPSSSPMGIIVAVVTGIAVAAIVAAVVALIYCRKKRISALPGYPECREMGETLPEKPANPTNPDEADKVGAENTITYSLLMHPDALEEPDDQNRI


Key:
[1] = target: T1, soluble mouse FcγRII, His-tagged; assay: SPR, mouse FcγRII captured via His-tag, antigen-antibody complex injected, pH 7.4, 25 C
Protocol: Regarding the produced Fc region variant-containing antibodies, binding assays between soluble mouse FcγRII and antigen-antibody complexes were performed using BIACORE® T200 (GE Healthcare). Soluble mouse FcγRII was produced in the form of a His-tagged molecule by a method known to those skilled in the art. An appropriate amount of an anti-His antibody was fixed onto Sensor chip CM5 (GE Healthcare) by the amine coupling method using a His capture kit (GE Healthcare) to capture mouse FcγRII. Next, an antibody-antigen complex and a running buffer (as a reference solution) were injected, and interaction was allowed to take place with the mouse FcγRII captured onto the sensor chip. 20 mM N-(2-Acetamido)-2-aminoethanesulfonic acid, 150 mM NaCl, 1.2 mM CaCl₂), and 0.05% (w/v) TWEEN® 20 at pH7.4 was used as the running buffer, and the respective buffer was also used to dilute the soluble mouse FcγRII. To regenerate the sensor chip, 10 mM glycine-HCl at pH1.5 was used. All measurements were carried out at 25° C. […] To calculate the parameters, the BIACORE® T100 Evaluation Software (GE Healthcare) was used.

[2] = target: T2, human FcγRIIb constitutively expressed …; assay: cell-based or functional assay

Binder | biacore IC binding (relative, SG1 = 1.00) [1] | celluar uptake (labelled human latent myostatin taken up as antigen-antibody complex) [2]
M103205H795-P1497m/M103202L889-SK1 (antibody, human IgG1, kappa, name in EU numbering) heavy: not shown light: DIVMTQSPATLSLSPGERATLSCTSSQSVYHANWLSWFQQKPGQPPKLLIYWASTLAYGVPSRFSGSGSGTDFTLTISSLQPEDAATYYCAGGYGGGRYAFGQGTKVEIKRTVAAPSVFIFPPSDEQLKSGTASVVCLLNNFYPREAKVQWKVDNALQSGNSQESVTEQDSKDSTYSLSSTLTLSKADYEKHKVYACEVTHQGLSSPVTKSFNRGEC | 1.49 relative to SG1 | 1.38 relative to SG1 = 1.00
M103205H795-P1527m/M103202L889-SK1 (antibody, human IgG1, kappa, name in EU numbering, copies: 2 + 2) heavy: not shown light: DIVMTQSPATLSLSPGERATLSCTSSQSVYHANWLSWFQQKPGQPPKLLIYWASTLAYGVPSRFSGSGSGTDFTLTISSLQPEDAATYYCAGGYGGGRYAFGQGTKVEIKRTVAAPSVFIFPPSDEQLKSGTASVVCLLNNFYPREAKVQWKVDNALQSGNSQESVTEQDSKDSTYSLSSTLTLSKADYEKHKVYACEVTHQGLSSPVTKSFNRGEC | 0.98 relative to SG1 | 0.92 relative to SG1 = 1.00
M103205H795-P1530m/M103202L889-SK1 (antibody, human IgG1, kappa, name in EU numbering, copies: 2 + 2) heavy: not shown light: DIVMTQSPATLSLSPGERATLSCTSSQSVYHANWLSWFQQKPGQPPKLLIYWASTLAYGVPSRFSGSGSGTDFTLTISSLQPEDAATYYCAGGYGGGRYAFGQGTKVEIKRTVAAPSVFIFPPSDEQLKSGTASVVCLLNNFYPREAKVQWKVDNALQSGNSQESVTEQDSKDSTYSLSSTLTLSKADYEKHKVYACEVTHQGLSSPVTKSFNRGEC | 1.09 relative to SG1 | 3.12 relative to SG1 = 1.00
M103205H795-P1526m/M103202L889-SK1 (antibody, human IgG1, kappa, name in EU numbering, copies: 2 + 2) heavy: not shown light: DIVMTQSPATLSLSPGERATLSCTSSQSVYHANWLSWFQQKPGQPPKLLIYWASTLAYGVPSRFSGSGSGTDFTLTISSLQPEDAATYYCAGGYGGGRYAFGQGTKVEIKRTVAAPSVFIFPPSDEQLKSGTASVVCLLNNFYPREAKVQWKVDNALQSGNSQESVTEQDSKDSTYSLSSTLTLSKADYEKHKVYACEVTHQGLSSPVTKSFNRGEC | 1.04 relative to SG1 | 1.2 relative to SG1 = 1.00
M103205H795-P1523m/M103202L889-SK1 (antibody, human IgG1, kappa, name in EU numbering, copies: 2 + 2) heavy: not shown light: DIVMTQSPATLSLSPGERATLSCTSSQSVYHANWLSWFQQKPGQPPKLLIYWASTLAYGVPSRFSGSGSGTDFTLTISSLQPEDAATYYCAGGYGGGRYAFGQGTKVEIKRTVAAPSVFIFPPSDEQLKSGTASVVCLLNNFYPREAKVQWKVDNALQSGNSQESVTEQDSKDSTYSLSSTLTLSKADYEKHKVYACEVTHQGLSSPVTKSFNRGEC | 1.19 relative to SG1 | 1.91 relative to SG1 = 1.00
M103205H795-P1500m/M103202L889-SK1 (antibody, human IgG1, kappa, name in EU numbering) heavy: not shown light: DIVMTQSPATLSLSPGERATLSCTSSQSVYHANWLSWFQQKPGQPPKLLIYWASTLAYGVPSRFSGSGSGTDFTLTISSLQPEDAATYYCAGGYGGGRYAFGQGTKVEIKRTVAAPSVFIFPPSDEQLKSGTASVVCLLNNFYPREAKVQWKVDNALQSGNSQESVTEQDSKDSTYSLSSTLTLSKADYEKHKVYACEVTHQGLSSPVTKSFNRGEC | 1.32 relative to SG1 | 1.82 relative to SG1 = 1.00
M103205H795-P1531m/M103202L889-SK1 (antibody, human IgG1, kappa, name in EU numbering, copies: 2 + 2) heavy: not shown light: DIVMTQSPATLSLSPGERATLSCTSSQSVYHANWLSWFQQKPGQPPKLLIYWASTLAYGVPSRFSGSGSGTDFTLTISSLQPEDAATYYCAGGYGGGRYAFGQGTKVEIKRTVAAPSVFIFPPSDEQLKSGTASVVCLLNNFYPREAKVQWKVDNALQSGNSQESVTEQDSKDSTYSLSSTLTLSKADYEKHKVYACEVTHQGLSSPVTKSFNRGEC | 1.01 relative to SG1 | 2.35 relative to SG1 = 1.00
M103205H795-P1532m/M103202L889-SK1 (antibody, human IgG1, kappa, name in EU numbering, copies: 2 + 2) heavy: not shown light: DIVMTQSPATLSLSPGERATLSCTSSQSVYHANWLSWFQQKPGQPPKLLIYWASTLAYGVPSRFSGSGSGTDFTLTISSLQPEDAATYYCAGGYGGGRYAFGQGTKVEIKRTVAAPSVFIFPPSDEQLKSGTASVVCLLNNFYPREAKVQWKVDNALQSGNSQESVTEQDSKDSTYSLSSTLTLSKADYEKHKVYACEVTHQGLSSPVTKSFNRGEC | 1.23 relative to SG1 | 4.16 relative to SG1 = 1.00
M103205H795-P1533m/M103202L889-SK1 (antibody, human IgG1, kappa, name in EU numbering, copies: 2 + 2) heavy: not shown light: DIVMTQSPATLSLSPGERATLSCTSSQSVYHANWLSWFQQKPGQPPKLLIYWASTLAYGVPSRFSGSGSGTDFTLTISSLQPEDAATYYCAGGYGGGRYAFGQGTKVEIKRTVAAPSVFIFPPSDEQLKSGTASVVCLLNNFYPREAKVQWKVDNALQSGNSQESVTEQDSKDSTYSLSSTLTLSKADYEKHKVYACEVTHQGLSSPVTKSFNRGEC | 1.18 relative to SG1 | 3.52 relative to SG1 = 1.00
M103205H795-P1525m/M103202L889-SK1 (antibody, human IgG1, kappa, name in EU numbering) heavy: not shown light: DIVMTQSPATLSLSPGERATLSCTSSQSVYHANWLSWFQQKPGQPPKLLIYWASTLAYGVPSRFSGSGSGTDFTLTISSLQPEDAATYYCAGGYGGGRYAFGQGTKVEIKRTVAAPSVFIFPPSDEQLKSGTASVVCLLNNFYPREAKVQWKVDNALQSGNSQESVTEQDSKDSTYSLSSTLTLSKADYEKHKVYACEVTHQGLSSPVTKSFNRGEC | 1.31 relative to SG1 | 3.55 relative to SG1 = 1.00
M103205H795-P1501m/M103202L889-SK1 (antibody, human IgG1, kappa, name in EU numbering, copies: 2 + 2) heavy: not shown light: DIVMTQSPATLSLSPGERATLSCTSSQSVYHANWLSWFQQKPGQPPKLLIYWASTLAYGVPSRFSGSGSGTDFTLTISSLQPEDAATYYCAGGYGGGRYAFGQGTKVEIKRTVAAPSVFIFPPSDEQLKSGTASVVCLLNNFYPREAKVQWKVDNALQSGNSQESVTEQDSKDSTYSLSSTLTLSKADYEKHKVYACEVTHQGLSSPVTKSFNRGEC | 1.82 relative to SG1 | 2.4 relative to SG1 = 1.00
M103205H795-P1528m/M103202L889-SK1 (antibody, human IgG1, kappa, name in EU numbering, copies: 2 + 2) heavy: not shown light: DIVMTQSPATLSLSPGERATLSCTSSQSVYHANWLSWFQQKPGQPPKLLIYWASTLAYGVPSRFSGSGSGTDFTLTISSLQPEDAATYYCAGGYGGGRYAFGQGTKVEIKRTVAAPSVFIFPPSDEQLKSGTASVVCLLNNFYPREAKVQWKVDNALQSGNSQESVTEQDSKDSTYSLSSTLTLSKADYEKHKVYACEVTHQGLSSPVTKSFNRGEC | 1.12 relative to SG1 | 3.02 relative to SG1 = 1.00
M103205H795-P1522m/M103202L889-SK1 (antibody, human IgG1, kappa, name in EU numbering, copies: 2 + 2) heavy: not shown light: DIVMTQSPATLSLSPGERATLSCTSSQSVYHANWLSWFQQKPGQPPKLLIYWASTLAYGVPSRFSGSGSGTDFTLTISSLQPEDAATYYCAGGYGGGRYAFGQGTKVEIKRTVAAPSVFIFPPSDEQLKSGTASVVCLLNNFYPREAKVQWKVDNALQSGNSQESVTEQDSKDSTYSLSSTLTLSKADYEKHKVYACEVTHQGLSSPVTKSFNRGEC | 1.24 relative to SG1 | 2.13 relative to SG1 = 1.00
M103205H795-P1529m/M103202L889-SK1 (antibody, human IgG1, kappa, name in EU numbering, copies: 2 + 2) heavy: not shown light: DIVMTQSPATLSLSPGERATLSCTSSQSVYHANWLSWFQQKPGQPPKLLIYWASTLAYGVPSRFSGSGSGTDFTLTISSLQPEDAATYYCAGGYGGGRYAFGQGTKVEIKRTVAAPSVFIFPPSDEQLKSGTASVVCLLNNFYPREAKVQWKVDNALQSGNSQESVTEQDSKDSTYSLSSTLTLSKADYEKHKVYACEVTHQGLSSPVTKSFNRGEC | 1.08 relative to SG1 | 2.86 relative to SG1 = 1.00
M103205H795-P1524m/M103202L889-SK1 (antibody, human IgG1, kappa, name in EU numbering) heavy: not shown light: DIVMTQSPATLSLSPGERATLSCTSSQSVYHANWLSWFQQKPGQPPKLLIYWASTLAYGVPSRFSGSGSGTDFTLTISSLQPEDAATYYCAGGYGGGRYAFGQGTKVEIKRTVAAPSVFIFPPSDEQLKSGTASVVCLLNNFYPREAKVQWKVDNALQSGNSQESVTEQDSKDSTYSLSSTLTLSKADYEKHKVYACEVTHQGLSSPVTKSFNRGEC | 1.4 relative to SG1 | 3.66 relative to SG1 = 1.00
M103205H795-P1498m/M103202L889-SK1 (antibody, human IgG1, kappa, name in EU numbering) heavy: not shown light: DIVMTQSPATLSLSPGERATLSCTSSQSVYHANWLSWFQQKPGQPPKLLIYWASTLAYGVPSRFSGSGSGTDFTLTISSLQPEDAATYYCAGGYGGGRYAFGQGTKVEIKRTVAAPSVFIFPPSDEQLKSGTASVVCLLNNFYPREAKVQWKVDNALQSGNSQESVTEQDSKDSTYSLSSTLTLSKADYEKHKVYACEVTHQGLSSPVTKSFNRGEC | 1.38 relative to SG1 | 1.56 relative to SG1 = 1.00
